Patent publication US20150079112A1 (SAMSUNG ELECTRONICS, published 2015)

B1: FLAG-tagged hAng2 (ligand)
chain: YNNFRKSMDSIGKKQYQVQHGSCSYTFLLPEMDNCRSSSSPYVSNAVQRDAPLEYDDSVQRLQVLENIMENNTQWLMKLENYIQDNMKKEMVEIQQNAVQNQTAVMIEIGTNLLNQTAEQTRKLTDVEAQVLNQTTRLELQLLEHSLSTNKLEKQILDQTSEINKLQDKNSFLEKKVLAMEDKHIIQLQSIKEEKDQLQVLVSKQNSIIEELEKKIVTATVNNSVLQKQQHDLMETVNNLLTMMSTSNSAKDPTVAKEEQISFRDCAEVFKSGHTTNGIYTLTFPNSTEEIKAYCDMEAGGGGWTIIQRREDGSVDFQRTWKEYKVGFGNPSGEYWLGNEFVSQLTNQQRYVLKIHLKDWEGNEAYSLYEHFYLSSEELNYRIHLKGLTGTAGKISSISQPGNDFSTKDGDNDKCICKCSQMLTGGWWFDACGPSNLNGMYYPQRQNTNKFNGIKWYYWKGSGYSLKATTMMIRPADF
notes: not shown: FLAG tag
B2: Ang2 protein (R&D systems) (ligand)
chain: B1 chain
notes: It may be the same product as the C-His hAng2 of the SPR; also called human Ang2 protein (R&D systems; 623-AN-025/CF)
B3: 4H10 (antibody, V domains shown)
VH: EVQLLESGGGLVQPGGSLRLSCAASGFTFSSYDMSWVRQAPGKGLEWVSLISPDSSSIYYADSVKGRFTISRDNSKNTLYLQMNSLRAEDTAVYYCAKDLISFWRGGFDYWGQGTLVTVSS
VL: QSVLTQPPSASGTPGQRVTISCSGSSSNIGSNYVNWYQQLPGTAPKLLIYADSNRPSGVPDRFSGSKSGTSASLAISGLRSEDEADYYCGSWDYSLSGYVFGGGTKLTVLG
notes: also called antibody 4H10

Tests used:
hTie2-Fc (R&D Systems) [1] = biological target: T1, hTie2-Fc (R&D Systems) (human, UniProt Q02763 23-745); assay: competition ELISA: FLAG-tagged hAng2 (400 ng/ml) bound to coated hTie2-Fc in the presence of titrated 10D6, detected with anti-FLAG-HRP
T1 construct: also called hTie-2/Fc fusion protein; not shown: Fc of human IgG1
T1 sequence (Q02763 23-745 limits assumed): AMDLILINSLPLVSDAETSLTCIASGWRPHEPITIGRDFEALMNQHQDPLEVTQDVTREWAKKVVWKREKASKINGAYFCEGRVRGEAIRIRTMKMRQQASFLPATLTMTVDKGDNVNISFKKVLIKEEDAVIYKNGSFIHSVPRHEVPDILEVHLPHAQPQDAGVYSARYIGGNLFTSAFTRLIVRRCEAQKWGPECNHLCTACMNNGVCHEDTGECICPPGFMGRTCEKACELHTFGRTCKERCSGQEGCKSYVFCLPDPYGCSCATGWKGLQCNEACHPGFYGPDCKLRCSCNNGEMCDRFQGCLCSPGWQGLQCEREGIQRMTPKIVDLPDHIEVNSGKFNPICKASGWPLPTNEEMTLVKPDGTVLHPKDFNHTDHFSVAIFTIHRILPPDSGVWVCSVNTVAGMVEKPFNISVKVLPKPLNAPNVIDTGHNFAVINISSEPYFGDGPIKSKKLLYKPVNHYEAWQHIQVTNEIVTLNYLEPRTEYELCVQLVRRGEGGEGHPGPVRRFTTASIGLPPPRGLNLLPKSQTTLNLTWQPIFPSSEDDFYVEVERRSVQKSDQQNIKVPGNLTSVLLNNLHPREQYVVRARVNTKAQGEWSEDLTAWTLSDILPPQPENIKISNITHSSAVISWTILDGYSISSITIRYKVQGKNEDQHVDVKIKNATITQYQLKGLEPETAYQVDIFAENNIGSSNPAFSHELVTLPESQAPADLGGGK
Experimental: (§1) More specifically, MaxiSorp™ flat-bottom plate (Nunc) of 96-well was coated with hTie2-Fc (R&D Systems) which is a protein bound with 4 ug (microgram)/ml of Fc of human IgG1. After that, the plate was washed five times with 0.05% (v/v) Tween-20-containing PBS (phosphate buffer saline) and then blocked with 1% (v/v) BSA (bovine serum albumin; Sigma)-containing PBS at a room temperature for 2 hour.
(§2) For Ang2:Tie2 competition ELISA, each anti-Ang2 antibody obtained in Example 2 was placed at various concentrations of 400 nM to 0.001 nM into each well coated with the hTie-2/Fc fusion protein along with 1% (v/v) BSA and 400 ng/ml of a FLAG-tagged hAng2 and then, the plate was allowed to react at a room temperature for 2 hours and washed five times with PBST. After that, an anti-FLAG antibody (Sigma) conjugated with HRP diluted in 1% (v/v) BSA-containing PBS at a ratio of 1:5,000 (v/v) was added in an amount of 100 ul (microliter) to each well to react at a room temperature for 1 hour and then, the plate was washed five times with PBST. Lastly, 100 ul (microliter) of TMB substrate (Cell Signaling) was added to each well of the plate to induce color development for 3 min. and then, the reaction was ceased by the addition of 100 ul of Stop solution (Cell Signaling) and OD450 values were measured on a plate reader (Molecular Devices).

hTie2-Fc (R&D Systems) [2] = biological target: T1, hTie2-Fc (R&D Systems); assay: ELISA, coated Tie2-Fc 4 ug/ml, Ang2 0.25 ug/ml and 10D6 2 ug/ml added, anti-mouse IgG-HRP, OD450
Experimental: A 96-well MaxiSorp™ flat-bottom plate (Nunc) was coated with 4 ug/ml of Tie2-Fc (R&D systems) or BSA (Sigma). Then, the plate was washed five times with 0.05% (v/v) Tween-20-containing PBS (Phosphate Buffer Saline) and blocked with 1% (v/v) BSA (Bovine serum albumin; Sigma)-containing PBS at a room temperature for 2 hours. 0.25 ug/ml of Ang2 and 2 ug/ml of antibody 10D6 were added to each well of the plate, which was allowed to react at a room temperature for 2 hours and then washed five times with PBST. After that, an anti-mouse IgG antibody (Sigma) conjugated with HRP diluted in 1% (v/v) BSA-containing PBS at a ratio of 1:5,000 (v/v) was added in an amount of 100 ul to each well to react at a room temperature for 1 hour and then, the plate was washed five times with PBST. Lastly, 100 ul (microliter) of TMB substrate (Cell Signaling) was added to each well of the plate to induce color development for 3 min. and then, the reaction was ceased by the addition of 100 ul of Stop solution (Cell Signaling) and OD450 values were measured on a plate reader (Molecular Devices).

FLAG-tagged hAng2 = biological target: B1; assay: competition ELISA: antibody titrated with FLAG-tagged hAng2 (400 ng/ml) on coated hTie2-Fc, bound Ang2 detected with anti-FLAG-HRP; blocked ligand pair Ang2-Tie2
Experimental: as §1
as §2, with “Devices). […]” for “Devices).”

B1: binds (hTie2-Fc (R&D Systems) [1]).

B2: binds (hTie2-Fc (R&D Systems) [2]).

With B3 the “IC50 (read off the curve)” value (FLAG-tagged hAng2) was roughly 0.2 nM.
